Results on seven molecules are retold here after patent US20160046707A1 (EISAI R AND D MANAGEMENT, published 2016).

The chains are these.
B1: humanized anti-human CCL20 antibody 36LK3/42HKK1 (antibody, human IgG1, kappa, V domains shown)
VH: QVQLVQSGAEVKKPGASVKVSCKASGYTFTSYWMHWVRQAPGQGLEWMGLIDPSDKYTNYNQKFKGRVTMTRDTSTSTVYMELSSLRSEDTAVYYCARGNYGVDYGMDYWGQGTLVTVSS
VL: DIQMTQSPSSLSASVGDRVTITCGASENIYGALNWYQRKPGKAPKLLIYGATNLADGVPSRFSGSGSGRDYTLTISSLQPEDFATYYCQNVLITPYTFGQGTKLEIKR
B2: humanized anti-human CCL20 antibody 36LC3/36HKK3 (antibody, human IgG1, kappa, V domains shown)
VH: QVQLVQSGAEVKKPGASVKVSCKASGYTFTNYWMHWVRQAPGQGLEWMGVIDPSDSYTTYNQKFKGKATLTVDTSTSTAYMELSSLRSEDTAVYYCTRGNYGVDYAMDYWGQGTLVTVSS
VL: B1 VL with G24R, R38Q, D70Q, T72S, Q100G
B3: humanized anti-human CCL20 antibody 36LK3/36HC3 (antibody, human IgG1, kappa, V domains shown)
VH: B2 VH with R38K, M48I, L70M, V72R, A79V, L115S
VL: B1 VL
B4: humanized anti-human CCL20 antibody 36LK3/42HKK2 (antibody, human IgG1, kappa, V domains shown)
VH: B1 VH with M70L, R72V, A97T
VL: B1 VL
B5: 36LC3/36HC3 (antibody, human IgG1, kappa, V domains shown)
VH: B2 VH with R38K, M48I, L70M, V72R, A79V, L115S
VL: B1 VL with G24R, R38Q, D70Q, T72S, Q100G
B6: humanized anti-human CCL20 antibody 36LK3/42HKK3 (antibody, human IgG1, kappa, V domains shown)
VH: B2 VH with N31S, V50L, S56K, T59N, A106G
VL: B1 VL
B7: humanized anti-human CCL20 antibody 36LK3/36HKK3 (antibody, human IgG1, kappa, V domains shown)
VH: B2 VH
VL: B1 VL

Where a chain is given by its changes, count along the chain named.

T1 sequence (P78556 other isoform, or with tags, fused parts or gaps limits assumed): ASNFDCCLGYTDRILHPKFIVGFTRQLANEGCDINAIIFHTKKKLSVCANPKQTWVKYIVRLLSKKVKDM

One experiment addresses T1, recombinant human CCL20 (R&D Systems, #360-MP-025/CF) (human, UniProt P78556 27-96). The experiment is described as follows: cell-based or functional assay.
B1: the “IC50 of chemotaxis inhibition” value was found to be 1.36 nM.
In the case of B2, the “IC50 of chemotaxis inhibition” value was 1.26 nM.
In the case of B3, the “IC50 of chemotaxis inhibition” value was found to be 1.13 nM.
Still for that read-out and setting: under B4 stands 1.66 nM; under B5, 1.33 nM.
With B6, the “IC50 of chemotaxis inhibition” value worked out at 1.47 nM.
Turning to B7, the “IC50 of chemotaxis inhibition (block of heavy chains 36HKK1 to 36HKK3)” value came out at 1.31 nM and the “IC50 of chemotaxis inhibition (block of heavy chains 36HKK3, 36HC2, 36HC3)” value was 1.21 nM.

In the next experiment the target is T1, recombinant human CCL20 (R&D Systems, …). The experiment is described as follows: cell-based or functional assay. This is another data set of the same source.
Regarding B1, the “IC95 of chemotaxis inhibition” value was found to be 9.02 nM.
Consider B2, for which the “IC95 of chemotaxis inhibition” value came to 9.75 nM.
Take B3: the “IC95 of chemotaxis inhibition” value is 8.38 nM.
As to B4, the “IC95 of chemotaxis inhibition” value amounted to 15.3 nM.
The same measure, in the same setting: the result for B6 reads 10.8 nM.

The next experiment has the same target. The experiment is described as follows: cell-based or functional assay. The source holds these as a separate data set.
For the molecule B1, the “IC90 of chemotaxis inhibition” value was 4.86 nM.
In the case of B2, the “IC90 of chemotaxis inhibition” value is 4.33 nM.
Consider B3, for which the “IC90 of chemotaxis inhibition” value came out at 4.6 nM.
Same read-out and setting: the result for B4 reads 6.54 nM.
Still for that read-out and setting: under B5 stands 6.34 nM; under B6, 5.65 nM.
